Test results reported in patent publication US20160193357A1.

Columns and labels:
[1] = target: human Trop-2 on cells (human) (UniProt P09758); assay: cell binding on NCI-N87, anti-mouse-HRP, luminescence
[2] = target: recombinant human neonatal receptor (FcRn) (human) (UniProt P55899); assay: SPR (BIACORE), FcRn on low-density chip, three runs at 400 to 25 nM
[3] = target: rhTrop-2/TACSTD2 (Sino Biological, Inc.) (human) (UniProt P09758); assay: SPR (BIACORE), recombinant human Trop-2 on low-density CM5 chip, 1:1 model, three runs
[4] = target: human Trop-2 on cells (human) (UniProt P09758); assay: cell-based or functional assay
[5] = target: rhTrop-2/TACSTD2 (Sino Biological, Inc.) (human) (UniProt P09758); assay: SPR (BIACORE), Trop-2 on chip
[6] = target: human Trop-2 on cells (human) (UniProt P09758); assay: cell binding assay; cell line not stated
[7] = target: recombinant human neonatal receptor (FcRn) (human) (UniProt P55899); assay: SPR (BIACORE), FcRn on chip
[8] = target: Recombinant human Trop-2 with a His-tag (Sino Biological, Cat#10428-H09H) (human) (UniProt P09758); assay: ELISA on His-tagged recombinant human Trop-2 captured on Ni-NTA strips
Recombinant human Trop-2 with a His-tag (Sino Biological, Cat#10428-H09H) (human), sequence (P09758 27-274 limits assumed): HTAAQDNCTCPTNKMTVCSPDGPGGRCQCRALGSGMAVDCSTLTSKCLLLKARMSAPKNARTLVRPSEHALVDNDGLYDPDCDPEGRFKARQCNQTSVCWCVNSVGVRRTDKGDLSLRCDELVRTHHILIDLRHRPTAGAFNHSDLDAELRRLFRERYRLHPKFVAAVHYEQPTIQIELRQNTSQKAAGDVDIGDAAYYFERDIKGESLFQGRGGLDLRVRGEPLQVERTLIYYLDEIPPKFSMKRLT

human Trop-2 on cells (human), sequence (P09758 27-323): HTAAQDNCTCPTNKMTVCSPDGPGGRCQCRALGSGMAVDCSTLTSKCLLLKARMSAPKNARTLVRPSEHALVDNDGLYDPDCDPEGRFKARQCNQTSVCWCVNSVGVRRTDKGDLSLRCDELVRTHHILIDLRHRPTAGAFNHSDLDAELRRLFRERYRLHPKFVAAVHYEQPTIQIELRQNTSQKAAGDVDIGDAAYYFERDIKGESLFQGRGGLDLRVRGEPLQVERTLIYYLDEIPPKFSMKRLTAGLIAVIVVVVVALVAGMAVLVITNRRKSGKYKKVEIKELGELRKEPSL
rhTrop-2/TACSTD2 (Sino Biological, Inc.) (human), sequence (P09758 27-274 limits assumed): as the sequence (P09758 27-274 limits assumed) above

Substance | BMax (relative luminescent units) [1] | Kd [1] [nM] | reduction of maximum binding (Bmax) compared to RS7 [1] [%] | Kd [2] [nM] | Kd [3] [nM] | ADCC, specific lysis of MDA-MB-468 by PBMCs (E:T 50:1, 33.3 nM) [4] [%] | γH2AX induction in BxPC-3, Mean Fluorescence Intensity [4] [MFI] | γH2AX induction in BxPC-3, Percent Positive [4] [%] | also measured
162-46.2 murine anti-Trop-2 monoclonal antibody | 8470 | 0.52 | 25 |  |  |  |  |  | 
Sacituzumab govitecan (IMMU-132, also known as hRS7-CL2A-SN-38) (antibody) |  |  |  | 192 | 0.26 | 8.6 | 5350 | 69 | Median fluorescence intensity of phospho-H2AX staining (dsDNA breaks), HCC1806 (Trop-2+), after 30 min at 4° C., wash and overnight culture [4]: 546 MFI; fold improvement in KD compared to naked hRS7 [5]: 2 fold; Kd [6]: 1.2 nM; fold lower average binding level than hRS7 [7]: 2 fold

Second part, led by results:

BMax (relative luminescent units) [1] | Kd [1] [nM] | reduction of maximum binding (Bmax) compared to RS7 [1] [%] | Kd [2] [nM] | Kd [3] [nM] | ADCC, specific lysis of MDA-MB-468 by PBMCs (E:T 50:1, 33.3 nM) [4] [%] | γH2AX induction in BxPC-3, Mean Fluorescence Intensity [4] [MFI] | γH2AX induction in BxPC-3, Percent Positive [4] [%] | Substance | also measured
6020 | 0.49 | 50 |  |  |  |  |  | MAB650 murine anti-Trop-2 monoclonal antibody (R&D Systems) | 
 |  |  |  |  |  | 2250 | 12.7 | hA20 anti-CD20-SN38 conjugate (antibody) | 
 |  |  | 92.4 | 0.51 | 29.8 |  |  | humanized RS7 (hRS7) anti-Trop-2 antibody | ADCC, specific lysis of BxPC-3 by PBMCs (E:T 100:1, 33.3 nM) [4]: 8.5%; Kd [8]: 0.3 nM
